Test results reported in US20120129757A1, “COMPOSITIONS AND METHODS FOR PROMOTING VASCULAR BARRIER FUNCTION AND TREATING PULONARY FIBROSIS” (priority 2008, published 2012).
Entries after “also recorded” stand apart in the source; their conditions may differ.

What was measured:
[1] = system: BL/6 mice; format: in vivo, mouse
[2] = system: VE-cadherin; test: VE-cadherin internalization assay; format: cell-based, human; conditions: HMVEC-lung, 10 ng/ml IL-1β 1 hour, 10 nM Slit2N
Description: Internalization assay. VE-cadherin internalization was performed as described Xiao, K., J. Garner, K. M. Buckley, P. A. Vincent, C. M. Chiasson, E. Dejana, V. Faundez, and A. P. Kowalczyk. 2005. p120-Catenin regulates clathrin-dependent endocytosis of VE-cadherin. Mol Biol Cell 16:5141-5151. In brief, HMVEC-lung were seeded onto chamber slides and cultured for 72 hours. The media was then removed and the cells labeled for 30 minutes at 4° C. with anti-VE-cadherin antibody (clone BV6, RDI Fitzgerald). Cells were then pre-treated with Slit2N or Mock for 30 minutes. Excess antibody was removed by washing twice on ice with ice-cold media. Chamber slides were moved to 37° C. and incubated for 1 hour with 10 ng/ml IL-1β and 0.6 mM primaquine in the presence of 10 nM Slit2N or Mock. Cells were acid-washed to strip the surface-bound VE-cadherin. Monolayers were washed, fixed, and permeablized. Internalized VE-cadherin antibody was detected with Alexa 488-conjugated donkey anti-mouse IgG (Molecular Probes). Images are representative of four independent experiments.

[3] = system: HMVEC-lung; test: Subcellular (membrane) fractionation and immunoblotting; format: cell-based, human
Description: Subcellular fractionation. HMVEC-lung were treated with Slit2N or Mock in 0.1% FBS EBM-2 for 1.5 hours. Cells were then washed twice with ice-cold PBS containing Ca^2+/Mg^2+, once with HLB buffer (10 mM Tris-HCl PH7.4, 5 mM KCl, 1 mM MgCl2), and collected in HLB buffer supplemented with protease inhibitors (Roche), phosphatase inhibitors (Sigma) and 1 mM DTT. Cells were then dounce-homogenized (20 strokes). The homogenate was centrifuged at 400 g for 10 minutes at 4° C. to pellet cell debris. The resulting supernatant was centrifuged again at 16,000 g for 30 minutes at 4° C. The pellet was washed once with HLB and resuspended in RIPA buffer for 30 minutes at 4° C. The resuspended pellet was centrifuged (16,000 g/15 min at 4° C.), and the resulting supernatant was saved as soluble membrane fraction. To obtain the total cell lysate an aliquot was saved prior to dounce homogenization. RIPA buffer was added to this aliquot and centrifuged at 13,000 g for 10 minutes at 4° C. The supernatant was saved and used as total cell lysate. Antibodies to VE-cadherin were obtained from Cell Signaling, and p120-catenin and β-catenin from BD biosciences.

[4] = system: VE-cadherin/p120-catenin interaction; test: Immunoprecipitation of VE-cadherin, immunoblot for p120-catenin; format: cell-based, human; conditions: HMVEC-lung, 10 ng/mL IL-1β 10 minutes
Description: Immunoprecipitation. HMVEC-lung were treated with Slit2N or Mock in 0.1% FBS EBM-2 for 30 minutes. Cells were then stimulated with 10 ng/mL IL-1β for 10 minutes. HMVEC-lung were then washed with ice-cold PBS and lysed with ice-cold lysis buffer (10 mM Tris-HCl pH7.4, 50 mM NaCl, 1% NP-40 and 10% glycerol) supplemented with protease inhibitors, phosphatase inhibitors and 1 mM DTT. Cell lysates were incubated on ice for 30 min and centrifuged at 13,000 g for 15 minutes to pellet cell debris. Protein concentrations were determined by BCA assay (PIERCE) and 0.5 mg lysate were incubated with 8 μg of VE-cadherin antibody (Cell Signaling) and protein A/G sepharose (Santa Cruz) for 1 hour at 4° C. Complexes were washed three times with lysis buffer. The immunoprecipitates were subjected to Western blot analysis.

[5] = system: C57BL/6 mice; format: in vivo, mouse
[6] = system: H5N1 virus (Influenza A, Duck/MN/1525/81); format: in vivo, BALB/c mice
[7] = system: C57BL/6 mice; format: in vivo, mouse; remark: listed apart in the source
[8] = system: HMVEC-lung; test: Immunofluorescence for VE-cadherin and p120-catenin after IL-1β stimulation; format: cell-based, human; conditions: 10 ng/mL IL-1β 3 hours, Slit2N pre-treatment 30 minutes
Description: Immunofluorescence. Immunofluorescence was performed as described in Jones, C. […] 2008. Cells were pre-treated with Slit2N or Mock for 30 minutes followed by stimulation with 10 ng/mL IL-1β for 3 hours. Primary antibodies to VE-cadherin (BD biosciences) or p120-catenin (Santa Cruz) were applied at 4° C. overnight. Images are representative of three independent experiments.

[9] = system: primary human PMNs; test: Neutrophil migration to fMLP, primary hPMNs; format: cell-based; conditions: fMLP 10 μM, 2 h
Description: Neutrophil migration. HL-60 cells were grown under standard conditions with RPMI-1640 media supplemented with 10% FBS and 1% pen/step. Cells induced with 1.2% dimethyl sulphoxide (DMSO) were obtained by seeding HL-60 cells at 3×10^6 per mL in growth media and culturing for 4 6 days (Collins, S. J., F. W. Ruscetti, R. E. Gallagher, and R. C. Gallo. 1978. Terminal differentiation of human promyelocytic leukemia cells induced by dimethyl sulfoxide and other polar compounds. Proc Natl Acad Sci USA 75:2458-2462). hPMNs were isolated from healthy adult donor whole blood with ACD using techniques described in Zimmerman, G. A., T. M. McIntyre, and S. M. Prescott. 1985. Thrombin stimulates the adherence of neutrophils to human endothelial cells in vitro. J Clin Invest 76:2235-2246. The leukocyte chemoattractant fMLP (10 μM) along with Slit2 or Mock was placed in the lower wells of a 48-well chemotaxis chamber (Neuroprobe). A fibronectin coated (over night at 4° C.) polycarbonate membrane (Neuroprobe, 5 μm) was placed between the chemoattractant and the cells. HL-60 cells induced with DMSO or hPMNs (50 μl, 50,000 cells) were added to the upper wells. […] Migrated cells in 5 high power fields were counted and migration expressed as the percent of cells migrated compared to cells migrated towards fMLP in the absence of Slit2 or Mock.

[10] = system: endothelial cell; test: VEGF mediated endothelial cell migration; format: cell-based; conditions: Slit constructs 2 nM
[11] = Slit2N vs Mock, membrane fraction
[12] = 20 μg VE-cadherin blocking antibody (BV13) IV, LPS IT
[13] = Robo4+/+ mice, 24 hours after LPS, dose-dependent

## COc1nc(-c2ccc3c(c2)OCO3)n(-c2ccc(NC(=O)CSc3ccccc3)cc2)n1 [SecinH3, reference compound]
[1]; BL/6 mice, 0.05 U Bleomycin intranasal, 100 uL of 30 uM SecinH3 i.p. twice a day, day 11
  Bleomycin-induced fibrosis (Sircol collagen assay): inhibits

B1: Slit2N: N-terminal active fragment of Slit2 released by proteolytic cleavage; 150 kD recombinant protein, SEQ ID NO: 4 (protein, listed as Homo sapiens)
chain: QACPAQCSCSGSTVDCHGLALRSVPRNIPRNTERLDLNGNNITRITKTDFAGLRHLRVLQLMENKISTIERGAFQDLKELERLRLNRNHLQLFPELLFLGTAKLYRLDLSENQIQAIPRKAFRGAVDIKNLQLDYNQISCIEDGAFRALRDLEVLTLNNNNITRLSVASFNHMPKLRTFRLHSNNLYCDCHLAWLSDWLRQRPRVGLYTQCMGPSHLRGHNVAEVQKREFVCSDEEEGHQSFMAPSCSVLHCPAACTCSNNIVDCRGKGLTEIPTNLPETITEIRLEQNTIKVIPPGAFSPYKKLRRIDLSNNQISELAPDAFQGLRSLNSLVLYGNKITELPKSLFEGLFSLQLLLLNANKINCLRVDAFQDLHNLNLLSLYDNKLQTIAKGTFSPLRAIQTMHLAQNPFICDCHLKWLADYLHTNPIETSGARCTSPRRLANKRIGQIKSKKFRCSGTEDYRSKLSGDCFADLACPEKCRCEGTTVDCSNQKLNKIPEHIPQYTAELRLNNNEFTVLEATGIFKKLPQLRKINFSNNKITDIEEGAFEGASGVNEILLTSNRLENVQHKMFKGLESLKTLMLRSNRITCVGNDSFIGLSSVRLLSLYDNQITTVAPGAFDTLHSLSTLNLLANPFNCNCYLAWLGEWLRKKRIVTGNPRCQKPYFLKEIPIQDVAIQDFTCDDGNDDNSCSPLSRCPTECTCLDTVVRCSNKGLKVLPKGIPRDVTELYLDGNQFTLVPKELSNYKHLTLIDLSNNRISTLSNQSFSNMTQLLTLILSYNRLRCIPPRTFDGLKSLRLLSLHGNDISVVPEGAFNDLSALSHLAIGANPLYCDCNMQWLSDWVKSEYKEPGIARCAGPGEMADKLLLTTPSKKFTCQGPVDVNILAKCNPCLSNPCKNDGTCNSDPVDFYRCTCPYGFKGQDCDVPIHACISNPCKHGGTCHLKEGEEDGFWCICADGFEGENCEVNVDDCEDNDCENNSTCVDGINNYTCLCPPEYTGELCEEKLDFCAQDLNPCQHDSKCILTPKGFKCDCTPGYVGEHCDIDFDDCQDNKCKNGAHCTDAVNGYTCICPEGYSGLFCEFSPPMVLPRT
[2]
  internalization of VE-cadherin induced by IL-1β: blocks
[3]; Slit2N vs Mock 1.5 hours, membrane fraction and immunofluorescence
  VE-cadherin levels at the cell surface junctions: significantly increased
[3]; [11]
  cell surface p120-catenin expression: increased
  other junction or catenin family members (β-catenin): no observed effect
[4]
  association of VE-cadherin and p120-catenin after IL-1β: restores
[5]; mouse, in vivo, ip
  survival of mice exposed to CLP-induced sepsis: ~80%
[5]; six hours after CLP
  expression of a panel of cytokines and chemokines in plasma: did not alter
[1]; Robo4+/+ mice, day 11, 5 μg daily i.p.
  Bleomycin-induced pulmonary fibrosis (Sircol collagen): significantly reduced
[1]; Robo4+/+ mice, eleven days after Bleomycin, 5 μg daily i.p.
  Bleomycin-induced EBA accumulation in the lung: significantly reduced
[1]; Robo4-dependent manner
  histologic examination of the lung, trichrome stain (collagen deposition): confirmed the effect
[1]; Robo4AP/AP mice
  effect on Bleomycin-induced EBA accumulation in the lung, Robo4-null mice: lost
  effect on Bleomycin-induced pulmonary fibrosis, Robo4-null mice: lost
[6]; 6 days after infection, compared to mock treated mice
  lung pathology (H&E): decreased in severity
[6]; 6 days post-infection
  level of inflammatory cytokine release in lung homogenates: does not significantly reduce
  lung viral titers (viral load): did not alter
[6]; 21 days, 1.56 μg IV daily for 5 days
  mortality after H5N1 infection: reduced
[7]; [12]
  inflammatory cell infiltration in BALF in the presence of a VE-cadherin blocking antibody: not
  protein exudates in BALF in the presence of a VE-cadherin blocking antibody: not
[7]; 20 μg control IgG IV, LPS IT
  inflammatory cell infiltration in BALF in the presence of a control IgG antibody: reduced
  protein exudates in BALF in the presence of a control IgG antibody: reduced
[7]; LPS treated Robo4+/+ mice, 10 μg LPS IT, 3.5 μg Slit2N IV
  vascular leak in the lungs (Evans Blue Albumin): significantly reduces
[7]; LPS treated Robo4AP/AP mice
  effect on vascular leak in the lungs (Evans Blue Albumin), Robo4-null mice: lost
[7]; Robo4+/+ mice
  LPS-induced lung inflammation / ALI by histological examination (H&E, quantitative histology): reducing; also recorded: reduces
[7]; [13]
  inflammatory cell accumulation in BALF: reduced
  protein exudates in BALF: reduced
[7]; Robo4AP/AP mice
  inhibition of leukocyte accumulation in BALF, Robo4-null mice: lost
  inhibition of protein accumulation in BALF, Robo4-null mice: lost
[8]
  IL-1β decrease of p120-catenin at the cell surface: reversed this effect
  IL-1β reduction of VE-cadherin levels at the cell surface: negated this effect
[9]
  neutrophil migration to fMLP: did not respond

B2: Slit2-D1: Recombinant Slit2 construct, 40 kD, SEQ ID NO: 7 (protein, listed as Homo sapiens)
chain: ILNKVAPQACPAQCSCSGSTVDCHGLALRSVPRNIPRNTERLDLNGNNITRITKTDFAGLRHLRVLQLMENKISTIERGAFQDLKELERLRLNRNHLQLFPELLFLGTAKLYRLDLSENQIQAIPRKAFRGAVDIKNLQLDYNQISCIEDGAFRALRDLEVLTLNNNNITRLSVASFNHMPKLRTFRLHSNNLYCDCHLAWLSDWLRQRPRVGLYTQCMGPSHLRGHNVAEVQKREFVCS
[10]
  Inhibition of VEGF mediated endothelial cell migration: active
